This note sets out measurements from patent US20120121596A1 (published 2012).

The IC50 is the concentration at which inhibition is half-maximal. A low value points to inhibition by little substance.

In assay [1] the target is T1, HER3-ECD-Fc (human, UniProt P21860 20-643, limits assumed).
T1 construct: extracellular domain; also called HER3-FC; HER3-IgG
Description: phage solution binding competition ELISA as in Example 1, antigen in solution varied; experiment of paragraph 431 (compared with DL7 and DL11). On the technique in general: An ELISA detects its analyte on a solid surface through an enzyme-linked reagent.

For a further assay, the target named is T2, HER4-ECD-Fc (human, UniProt Q15303 26-651, limits assumed).
T2 construct: extracellular domain
T2 sequence (looked up): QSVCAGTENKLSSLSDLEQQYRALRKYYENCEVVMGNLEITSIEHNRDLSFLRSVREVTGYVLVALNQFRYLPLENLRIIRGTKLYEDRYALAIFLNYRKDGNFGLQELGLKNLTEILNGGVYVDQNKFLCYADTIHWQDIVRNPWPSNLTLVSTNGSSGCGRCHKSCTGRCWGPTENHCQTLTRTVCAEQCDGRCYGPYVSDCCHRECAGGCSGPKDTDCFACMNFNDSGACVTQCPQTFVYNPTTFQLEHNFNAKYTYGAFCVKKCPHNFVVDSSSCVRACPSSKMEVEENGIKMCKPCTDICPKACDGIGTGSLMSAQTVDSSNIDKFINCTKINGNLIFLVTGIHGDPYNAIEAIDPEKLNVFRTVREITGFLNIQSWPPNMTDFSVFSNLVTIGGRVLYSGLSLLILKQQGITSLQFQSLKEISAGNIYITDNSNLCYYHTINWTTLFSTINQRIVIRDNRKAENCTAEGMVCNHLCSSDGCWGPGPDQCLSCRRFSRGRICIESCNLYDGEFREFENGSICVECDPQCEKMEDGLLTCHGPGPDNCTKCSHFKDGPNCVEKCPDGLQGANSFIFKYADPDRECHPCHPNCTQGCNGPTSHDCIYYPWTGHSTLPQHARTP
Put plainly: direct phage ELISA, proteins coated at 2 µg/ml, phage-Fab supernatant, OD450.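 Further: specificity test of dual-activity clones, with binding assessed across an antigen panel to check whether each recognises only its cognate target.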

A further assay concerns the target T3, HER2-ECD (human, UniProt P04626 23-652).
T3 construct: extracellular domain
The description is as above.

Another assay deals with T4, BSA (bovine, UniProt P02769).
T4 construct: also called bovine serum albumin
T4 sequence (P02769 25-607 limits assumed): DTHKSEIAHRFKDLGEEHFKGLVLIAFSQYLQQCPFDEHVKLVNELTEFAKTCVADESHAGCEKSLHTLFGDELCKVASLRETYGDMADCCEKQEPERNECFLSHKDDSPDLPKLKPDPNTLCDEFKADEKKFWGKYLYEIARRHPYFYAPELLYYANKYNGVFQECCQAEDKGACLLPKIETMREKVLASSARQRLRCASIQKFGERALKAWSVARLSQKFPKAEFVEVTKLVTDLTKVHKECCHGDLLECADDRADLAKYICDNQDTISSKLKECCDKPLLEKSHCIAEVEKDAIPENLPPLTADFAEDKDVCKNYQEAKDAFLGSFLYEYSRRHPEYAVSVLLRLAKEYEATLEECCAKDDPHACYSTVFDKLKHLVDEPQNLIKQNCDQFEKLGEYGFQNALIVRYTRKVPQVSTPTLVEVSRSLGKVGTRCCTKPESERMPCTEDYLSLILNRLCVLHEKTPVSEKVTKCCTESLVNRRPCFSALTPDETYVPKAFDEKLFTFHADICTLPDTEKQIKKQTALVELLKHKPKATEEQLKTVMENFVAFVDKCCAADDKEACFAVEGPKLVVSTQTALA
Described as above.

The target of assay [2] is T1, HER3-ECD-Fc. Description: phage solution binding competition ELISA; experiment of paragraph 433 (compared with DL3.1-3.7).
In assay [3] the target is T5, hEGFR-ECD (human, UniProt P00533 25-645).
T5 construct: extracellular domain
Put plainly: phage solution binding competition ELISA as in Example 1, antigen in solution varied.

In assay [4] the target is T5, hEGFR-ECD. Put plainly: direct phage ELISA, proteins coated at 2 µg/ml, phage-Fab supernatant, OD450.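 Further: specificity test of dual-activity clones, with binding assessed across an antigen panel to check whether each recognises only its cognate target.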
The target in assay [5] is T1, HER3-ECD-Fc. Described as above.
For a further assay, the target named is T6, Erbitux.
T6 construct: also called cetuximab; C225; not shown: the constant regions
The description is as above.

Assay [6] deals with T7, hEGFR-ECD-Fc (human EGFR extracellular domain fused to an Fc region of human IgG1) (human, UniProt P00533 25-645).
T7 construct: extracellular domain; not shown: Fc region of human IgG1
Description: phage ELISA of clones from plate selection.

For a further assay, the target named is T8, Xolair.
T8 construct: not shown: the constant regions
Put plainly: direct phage ELISA, proteins coated at 2 µg/ml, phage-Fab supernatant, OD450.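 Further: specificity test of dual-activity clones, with binding assessed across an antigen panel to check whether each recognises only its cognate target.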

The target of assay [7] is T5, hEGFR-ECD. Put plainly: phage solution binding competition ELISA: hEGFR-ECD in solution varied, unbound phage captured on antigen-coated plate.

Changes are numbered by the printed parent chain.

B1: D1.5-100 (phage-displayed Fab clone) (Fab, V domains shown)
VH: EVQLVESGGGLVQPGGSLRLSCAASGFTFTGNWIHWVRQAPGKGLEWVGEISPSGGYTDYADSVKGRFTISADTSKNTAYLQMNSLRAEDTAVYYCARESRVSYEAAMDYWGQGTLVTVSS
VL: DIQMTQSPSSLSASVGDRVTITCRASQDLATDVAWYQQKPGKAPKLLIYSASFLYSGVPSRFSGSGSGTDFTLTISSLQPEDFATYYCQQSEPEPYTFGQGTKVEIKR
notes: also called DL1.5-100
With B1, the IC50 with HER3-ECD-Fc [1] stood at 0.1 nM; in the assay with HER3-ECD-Fc [2] it was 4.6 nM; in the assay with hEGFR-ECD [3], 44 nM. In addition, the binding result with HER4-ECD-Fc, with HER2-ECD and with BSA was “no binding” throughout.

B2: D1.5-201 (phage-displayed Fab clone) (Fab, V domains shown)
VH: B1 VH
VL: DIQMTQSPSSLSASVGDRVTITCRASQAVWGGYIAPVAWYQQKPGKAPKLLIYDGSYLYSGVPSRFSGSGSGTDFTLTISSLQPEDFATYYCQQRLPTPYTFGQGTKVEIKR
notes: EGFR/HER2 dual-specific clone from the D1.5 light chain library
B2: the binding result with hEGFR-ECD [4] is given as “binds”; with HER3-ECD-Fc [5], “no binding”; with HER4-ECD-Fc it was “no binding”; with Erbitux, “no binding”; in the assay with HER2-ECD it was “binds”; in the assay with BSA, “no binding”. Further, the binding result in assay [6] is “binds”.

B3: D1.5 (phage-displayed Fab clone) (Fab, V domains shown)
VH: B1 VH
VL: B1 VL with L29V, A30S, D32A, E92Y, E94T
For B3, the binding result in the assay with Xolair, in the assay with HER3-ECD-Fc [5], with HER4-ECD-Fc, with HER2-ECD and with BSA was “no binding” in each case. The 50% inhibitory concentration (IC50) with hEGFR-ECD [7] is 0.39 nM.
